# T1: Lys(Dnp)-ATNATLMPRIVGG-Lys(Abz)
# T1 chain: KATNATLMPRIVGGK
# T2: Lys(Dnp)-ATNATMVPRIVGG-Lys(Abz)
# T2 chain: KATNATMVPRIVGGK
# T3: Lys(Dnp)-ATNATFFPRIVGG-Lys(Abz)
# T3 chain: KATNATFFPRIVGGK
# T4: Lys(Dnp)-ATNATFKPRIVGG-Lys(Abz)
# T4 chain: KATNATFKPRIVGGK
# T5: Lys(Dnp)-ATNATAGPRIVGG-Lys(Abz)
# T5 chain: KATNATAGPRIVGGK
# T6: Lys(Dnp)-ATNATITPRIVGG-Lys(Abz)
# T6 chain: KATNATITPRIVGGK
# T7: Lys(Dnp)-ATNATMKPRIVGG-Lys(Abz)
# T7 chain: KATNATMKPRIVGGK
# T8: Lys(Dnp)-ATNATVSPRIVGG-Lys(Abz)
# T8 chain: KATNATVSPRIVGGK
# T9: Lys(Dnp)-ATNATVFPRIVGG-Lys(Abz)
# T9 chain: KATNATVFPRIVGGK
# T10: Lys(Dnp)-ATNATAVPRIVGG-Lys(Abz)
# T10 chain: KATNATAVPRIVGGK
# T11: Lys(Dnp)-ATNATWAPRIVGG-Lys(Abz)
# T11 chain: KATNATWAPRIVGGK
# T12: Lys(Dnp)-ATNATPYPRIVGG-Lys(Abz)
# T12 chain: KATNATPYPRIVGGK
# T13: Lys(Dnp)-ATNATVQPRIVGG-Lys(Abz)
# T13 chain: KATNATVQPRIVGGK
# T14: Lys(Dnp)-ATNATYKPRIVGG-Lys(Abz)
# T14 chain: KATNATYKPRIVGGK
# T15: Lys(Dnp)-ATNATFVPRIVGG-Lys(Abz)
# T15 chain: KATNATFVPRIVGGK
# T16: Lys(Dnp)-ATNATPFPRIVGG-Lys(Abz)
# T16 chain: KATNATPFPRIVGGK
# T17: Lys(Dnp)-ATNATKTPRIVGG-Lys(Abz)
# T17 chain: KATNATKTPRIVGGK
# T18: Lys(Dnp)-ATNATGEPRIVGG-Lys(Abz)
# T18 chain: KATNATGEPRIVGGK
# T19: Lys(Dnp)-ATNATTQPRIVGG-Lys(Abz)
# T19 chain: KATNATTQPRIVGGK
# T20: Lys(Dnp)-ATNATNWPRIVGG-Lys(Abz)
# T20 chain: KATNATNWPRIVGGK
# T21: Lys(Dnp)-ATNATTHPRIVGG-Lys(Abz)
# T21 chain: KATNATTHPRIVGGK
# T22: Lys(Dnp)-ATNATLEPRIVGG-Lys(Abz)
# T22 chain: KATNATLEPRIVGGK
# T23: Lys(Dnp)-ATNATNAPRIVGG-Lys(Abz)
# T23 chain: KATNATNAPRIVGGK
# T24: Lys(Dnp)-ATNATYMPRIVGG-Lys(Abz)
# T24 chain: KATNATYMPRIVGGK
# T25: Lys(Dnp)-ATNATQRPRIVGG-Lys(Abz)
# T25 chain: KATNATQRPRIVGGK
# T26: Lys(Dnp)-ATNATPLPRIVGG-Lys(Abz)
# T26 chain: KATNATPLPRIVGGK
# T27: Lys(Dnp)-ATNATDTPRIVGG-Lys(Abz)
# T27 chain: KATNATDTPRIVGGK
# T28: Lys(Dnp)-ATNATHHPRIVGG-Lys(Abz)
# T28 chain: KATNATHHPRIVGGK
# T29: Lys(Dnp)-ATNATNEPRIVGG-Lys(Abz)
# T29 chain: KATNATNEPRIVGGK
# T30: Lys(Dnp)-ATNATRGPRIVGG-Lys(Abz)
# T30 chain: KATNATRGPRIVGGK
# T31: Lys(Dnp)-ATNATQDPRIVGG-Lys(Abz)
# T31 chain: KATNATQDPRIVGGK
# T32: Lys(Dnp)-ATNATQYPRIVGG-Lys(Abz)
# T32 chain: KATNATQYPRIVGGK
# T33: Lys(Dnp)-ATNATQIPRIVGG-Lys(Abz)
# T33 chain: KATNATQIPRIVGGK
# T34: Lys(Dnp)-ATNATELPRIVGG-Lys(Abz)
# T34 chain: KATNATELPRIVGGK
# T35: Lys(Dnp)-ATNATGDPRIVGG-Lys(Abz)
# T35 chain: KATNATGDPRIVGGK
# T36: Lys(Dnp)-ATNATYLPRIVGG-Lys(Abz)
# T36 chain: KATNATYLPRIVGGK
# T37: Lys(Dnp)-ATNATRFPRIVGG-Lys(Abz)
# T37 chain: KATNATRFPRIVGGK
# T38: Lys(Dnp)-ATNATRIPRIVGG-Lys(Abz)
# T38 chain: KATNATRIPRIVGGK
# T39: Lys(Dnp)-ATNATGNPRIVGG-Lys(Abz)
# T39 chain: KATNATGNPRIVGGK
# T40: Lys(Dnp)-ATNATEIPRIVGG-Lys(Abz)
# T40 chain: KATNATEIPRIVGGK
# T41: Lys(Dnp)-ATNATTYPRIVGG-Lys(Abz)
# T41 chain: KATNATTYPRIVGGK
# B1: Human plasma purified Factor Xa (protein)
# chain 1: ANSFLEEMKKGHLERECMEETCSYEEAREVFEDSDKTNEFWNKYKDGDQCETSPCQNQGKCKDGLGEYTCTCLEGFEGKNCELFTRKLCSLDNGDCDQFCHEEQNSVVCSCARGYTLADNGKACIPTGPYPCGKQTLER
# chain 2: IVGGQECKDGECPWQALLINEENEGFCGGTILSEFYILTAAHCLYQAKRFKVRVGDRNTEQEEGGEAVHEVEVVIKHNRFTKETYDFDIAVLRLKTPITFRMNVAPACLPERDWAESTLMTQKTGIVSGFGRTHEKGRQSTRLKMLEVPYVDRNSCKLSSSFIITQNMFCAGYDTKQEDACQGDSGGPHVTRFKDTYFVTGIVSWGEGCARKGKYGIYTKVTAFLKWIDRSMKTRGLPKAKSHAPEVITSSPLK
# B2: Human plasma purified Factor Xa (Molecular Innovations, Inc) (protein)
# chain 1: B1 chain 1
# chain 2: B1 chain 2
# Assays:
# [1] = biological target: T1, Lys(Dnp)-ATNATLMPRIVGG-Lys(Abz)
# [2] = biological target: T2, Lys(Dnp)-ATNATMVPRIVGG-Lys(Abz)
# [3] = biological target: T3, Lys(Dnp)-ATNATFFPRIVGG-Lys(Abz)
# [4] = biological target: T4, Lys(Dnp)-ATNATFKPRIVGG-Lys(Abz)
# [5] = biological target: T5, Lys(Dnp)-ATNATAGPRIVGG-Lys(Abz)
# [6] = biological target: T6, Lys(Dnp)-ATNATITPRIVGG-Lys(Abz)
# [7] = biological target: T7, Lys(Dnp)-ATNATMKPRIVGG-Lys(Abz)
# [8] = biological target: T8, Lys(Dnp)-ATNATVSPRIVGG-Lys(Abz)
# [9] = biological target: T9, Lys(Dnp)-ATNATVFPRIVGG-Lys(Abz)
# [10] = biological target: T10, Lys(Dnp)-ATNATAVPRIVGG-Lys(Abz)
# [11] = biological target: T11, Lys(Dnp)-ATNATWAPRIVGG-Lys(Abz)
# [12] = biological target: T12, Lys(Dnp)-ATNATPYPRIVGG-Lys(Abz)
# [13] = biological target: T13, Lys(Dnp)-ATNATVQPRIVGG-Lys(Abz)
# [14] = biological target: T14, Lys(Dnp)-ATNATYKPRIVGG-Lys(Abz)
# [15] = biological target: T15, Lys(Dnp)-ATNATFVPRIVGG-Lys(Abz)
# [16] = biological target: T16, Lys(Dnp)-ATNATPFPRIVGG-Lys(Abz)
# [17] = biological target: T17, Lys(Dnp)-ATNATKTPRIVGG-Lys(Abz)
# [18] = biological target: T18, Lys(Dnp)-ATNATGEPRIVGG-Lys(Abz)
# [19] = biological target: T19, Lys(Dnp)-ATNATTQPRIVGG-Lys(Abz)
# [20] = biological target: T20, Lys(Dnp)-ATNATNWPRIVGG-Lys(Abz)
# [21] = biological target: T21, Lys(Dnp)-ATNATTHPRIVGG-Lys(Abz)
# [22] = biological target: T22, Lys(Dnp)-ATNATLEPRIVGG-Lys(Abz)
# [23] = biological target: T23, Lys(Dnp)-ATNATNAPRIVGG-Lys(Abz)
# [24] = biological target: T24, Lys(Dnp)-ATNATYMPRIVGG-Lys(Abz)
# [25] = biological target: T25, Lys(Dnp)-ATNATQRPRIVGG-Lys(Abz)
# [26] = biological target: T26, Lys(Dnp)-ATNATPLPRIVGG-Lys(Abz)
# [27] = biological target: T27, Lys(Dnp)-ATNATDTPRIVGG-Lys(Abz)
# [28] = biological target: T28, Lys(Dnp)-ATNATHHPRIVGG-Lys(Abz)
# [29] = biological target: T29, Lys(Dnp)-ATNATNEPRIVGG-Lys(Abz)
# [30] = biological target: T30, Lys(Dnp)-ATNATRGPRIVGG-Lys(Abz)
# [31] = biological target: T31, Lys(Dnp)-ATNATQDPRIVGG-Lys(Abz)
# [32] = biological target: T32, Lys(Dnp)-ATNATQYPRIVGG-Lys(Abz)
# [33] = biological target: T33, Lys(Dnp)-ATNATQIPRIVGG-Lys(Abz)
# [34] = biological target: T34, Lys(Dnp)-ATNATELPRIVGG-Lys(Abz)
# [35] = biological target: T35, Lys(Dnp)-ATNATGDPRIVGG-Lys(Abz)
# [36] = biological target: T36, Lys(Dnp)-ATNATYLPRIVGG-Lys(Abz)
# [37] = biological target: T37, Lys(Dnp)-ATNATRFPRIVGG-Lys(Abz)
# [38] = biological target: T38, Lys(Dnp)-ATNATRIPRIVGG-Lys(Abz)
# [39] = biological target: T39, Lys(Dnp)-ATNATGNPRIVGG-Lys(Abz)
# [40] = biological target: T40, Lys(Dnp)-ATNATEIPRIVGG-Lys(Abz)
# [41] = biological target: T41, Lys(Dnp)-ATNATTYPRIVGG-Lys(Abz)
protein,measurement,setting,value
B1,FXa kcat/KM,[1],2700 M⁻¹ s⁻¹
same,FXa kcat/KM,[2],100 M⁻¹ s⁻¹
same,FXa kcat/KM,[3],48 M⁻¹ s⁻¹
same,FXa kcat/KM,[4],55 M⁻¹ s⁻¹
same,FXa kcat/KM,[5],14 M⁻¹ s⁻¹
same,FXa kcat/KM,[6],840 M⁻¹ s⁻¹
same,FXa kcat/KM,[7],72 M⁻¹ s⁻¹
same,FXa kcat/KM,[8],88 M⁻¹ s⁻¹
same,FXa kcat/KM,[9],54 M⁻¹ s⁻¹
same,FXa kcat/KM,[10],42 M⁻¹ s⁻¹
same,FXa kcat/KM,[11],42 M⁻¹ s⁻¹
same,FXa kcat/KM,[12],83 M⁻¹ s⁻¹
same,FXa kcat/KM,[13],250 M⁻¹ s⁻¹
same,FXa kcat/KM,[14],25 M⁻¹ s⁻¹
same,FXa kcat/KM,[15],71 M⁻¹ s⁻¹
same,FXa kcat/KM,[16],69 M⁻¹ s⁻¹
B2,FXa kcat/KM,[17],72 M⁻¹ s⁻¹
same,FXa kcat/KM,[18],87 M⁻¹ s⁻¹
same,FXa kcat/KM,[19],17 M⁻¹ s⁻¹
same,FXa kcat/KM,[20],86 M⁻¹ s⁻¹
same,FXa kcat/KM,[21],14 M⁻¹ s⁻¹
same,FXa kcat/KM,[22],690 M⁻¹ s⁻¹
same,FXa kcat/KM,[23],17 M⁻¹ s⁻¹
same,FXa kcat/KM,[24],160 M⁻¹ s⁻¹
same,FXa kcat/KM,[25],660 M⁻¹ s⁻¹
same,FXa kcat/KM,[26],330 M⁻¹ s⁻¹
same,FXa kcat/KM,[27],6.4 M⁻¹ s⁻¹
same,FXa kcat/KM,[28],25 M⁻¹ s⁻¹
same,FXa kcat/KM,[29],20 M⁻¹ s⁻¹
same,FXa kcat/KM,[30],680 M⁻¹ s⁻¹
same,FXa kcat/KM,[31],680 M⁻¹ s⁻¹
same,FXa kcat/KM,[32],200 M⁻¹ s⁻¹
same,FXa kcat/KM,[33],630 M⁻¹ s⁻¹
same,FXa kcat/KM,[34],100 M⁻¹ s⁻¹
same,FXa kcat/KM,[35],73 M⁻¹ s⁻¹
same,FXa kcat/KM,[36],340 M⁻¹ s⁻¹
same,FXa kcat/KM,[37],730 M⁻¹ s⁻¹
same,FXa kcat/KM,[38],700 M⁻¹ s⁻¹
same,FXa kcat/KM,[39],52 M⁻¹ s⁻¹
same,FXa kcat/KM,[40],55 M⁻¹ s⁻¹
same,FXa kcat/KM,[41],23 M⁻¹ s⁻¹

# Reference: patent US20160024487
